Measured values taken from paper PMC4884786.

Molecular target: Fbxl17 (UniProt Q9UF56)
Assay: HA-Sufu IP, Myc-Fbxl17 blot
Conditions: reference: Sufu wild type; sites S342,S346

Sufu (from UniProt Q9UMX1) Sufu S342A/S346A
binding against the reference: stronger
